In patent US20060024667A1 (PRIMEX CLINICAL LABORATORIES, published 2006):
Positions of bridges follow the written chain, without caps; N, C: chain ends. No end group written: not given here.

What follows are binders tested against T1, biotinylated Aβ42 (human, UniProt P05067 672-713, biotinylated (site not stated)) (assay: ELISA, peptide coated at 10 µg/ml, biotinylated Aβ42 in solution).
T1 construct: domain: amyloid-beta peptide (Aβ42); Added in solution (PBS/1% BSA) to plates coated with the HCDR3-derived peptides; detected with avidin-peroxidase; also called Aβ42 (biotinylated)
T1 sequence (P05067 672-713 limits assumed): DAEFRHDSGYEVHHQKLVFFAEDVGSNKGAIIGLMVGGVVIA

| Binder | binding result |
| --- | --- |
| IWGCSGKLICTTAVP (bridge 4-10 (inferred); also: cyclic via two Cys, bond not described, Negative control) [non-related cyclic peptide GM15] | no binding |
| CADWRYRSVFGPVSVAC (disulfide 1-17 (inferred); not fully specified, Negative control; also called Scr44; cyclic peptide with scrambled amino acids) [scrambled cyclic peptide ScrC44] | no binding |
| ASVRGWYVRSVFDPA (HCDR3 of clone b4.4 with an alanine at each end, without cysteines; linear; also called linear N44; linear peptide N44) [HCDR3-derived synthetic peptide N44] | no binding |
